From patent US20030027165A1 (published 2003) come the findings set out here.

Experiment [1] deals with T1, pol κ76, 76-kDa alternatively spliced isoform of DNA polymerase κ (human, UniProt Q9UBT6 1-870).
T1 construct: 672-residue open reading frame (GenBank AF315602), cloned by RT-PCR from human foreskin RNA with ON-DIN5'm and ON-DIN-THc; It was inserted BamHI/SalI into FLAG-modified pGBT9 and pGAD424; also called 76-kDa pol κ isoform; not shown: N-terminal yeast two-hybrid fusion part from the FLAG-modified pGBT9 or pGAD424 vector (Clontech) plus FLAG peptide; No
T1 sequence: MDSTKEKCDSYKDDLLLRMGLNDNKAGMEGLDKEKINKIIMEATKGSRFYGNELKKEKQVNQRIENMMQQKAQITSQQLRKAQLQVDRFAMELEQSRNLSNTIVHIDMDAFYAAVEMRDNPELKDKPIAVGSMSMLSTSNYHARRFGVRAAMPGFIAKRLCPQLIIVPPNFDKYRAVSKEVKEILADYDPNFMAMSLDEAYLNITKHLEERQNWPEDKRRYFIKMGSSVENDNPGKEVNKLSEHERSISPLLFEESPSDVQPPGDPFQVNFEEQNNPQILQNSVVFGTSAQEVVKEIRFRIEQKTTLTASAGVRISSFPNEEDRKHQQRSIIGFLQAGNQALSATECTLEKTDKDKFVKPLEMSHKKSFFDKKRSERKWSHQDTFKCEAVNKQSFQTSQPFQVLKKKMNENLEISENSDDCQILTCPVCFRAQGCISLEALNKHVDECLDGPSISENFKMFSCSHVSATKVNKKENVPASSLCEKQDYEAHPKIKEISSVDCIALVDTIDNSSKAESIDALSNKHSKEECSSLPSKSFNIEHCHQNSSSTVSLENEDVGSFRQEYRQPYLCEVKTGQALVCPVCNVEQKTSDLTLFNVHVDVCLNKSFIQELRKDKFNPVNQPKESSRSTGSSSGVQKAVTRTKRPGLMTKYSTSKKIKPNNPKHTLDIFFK
Kind of experiment: yeast two-hybrid.

The target of experiment [2] is T2, pol κ, DNA polymerase κ, the primary protein product of POLK (human, UniProt Q9UBT6 1-870).
T2 construct: not shown: N-terminal yeast two-hybrid fusion part from the FLAG-modified pGBT9 or pGAD424 vector (Clontech) plus FLAG peptide; No
T2 sequence (looked up): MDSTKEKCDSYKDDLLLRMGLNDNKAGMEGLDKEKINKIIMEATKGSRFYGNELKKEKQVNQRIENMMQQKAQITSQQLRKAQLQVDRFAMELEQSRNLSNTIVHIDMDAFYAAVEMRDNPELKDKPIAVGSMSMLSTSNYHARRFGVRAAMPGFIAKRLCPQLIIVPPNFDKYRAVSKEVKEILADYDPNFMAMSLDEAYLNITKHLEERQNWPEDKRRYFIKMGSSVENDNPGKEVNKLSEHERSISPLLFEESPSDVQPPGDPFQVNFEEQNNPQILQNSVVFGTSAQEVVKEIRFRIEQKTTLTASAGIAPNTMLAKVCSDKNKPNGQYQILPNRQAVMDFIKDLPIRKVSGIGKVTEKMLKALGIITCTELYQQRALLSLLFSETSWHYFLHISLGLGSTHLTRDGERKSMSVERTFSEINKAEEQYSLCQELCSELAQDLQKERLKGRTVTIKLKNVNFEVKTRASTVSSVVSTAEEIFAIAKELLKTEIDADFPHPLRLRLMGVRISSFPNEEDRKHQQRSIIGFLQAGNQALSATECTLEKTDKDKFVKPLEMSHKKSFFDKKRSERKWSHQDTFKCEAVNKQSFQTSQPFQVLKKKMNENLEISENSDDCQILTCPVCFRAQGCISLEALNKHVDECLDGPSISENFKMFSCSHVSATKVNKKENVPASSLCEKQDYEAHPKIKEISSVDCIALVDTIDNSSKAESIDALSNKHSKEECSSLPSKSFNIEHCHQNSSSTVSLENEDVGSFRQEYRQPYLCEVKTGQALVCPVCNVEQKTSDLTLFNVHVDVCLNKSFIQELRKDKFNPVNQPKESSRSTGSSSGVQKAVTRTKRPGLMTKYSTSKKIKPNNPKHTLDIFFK
Kind of experiment: yeast two-hybrid.

B1: Goodpasture antigen binding protein (GPBP) (enzyme, human, UniProt Q9Y5P4 1-624, looked up)
chain: MSDNQSWNSSGSEEDPETESGPPVERCGVLSKWTNYIHGWQDRWVVLKNNALSYYKSEDETEYGCRGSICLSKAVITPHDFDECRFDISVNDSVWYLRAQDPDHRQQWIDAIEQHKTESGYGSESSLRRHGSMVSLVSGASGYSATSTSSFKKGHSLREKLAEMETFRDILCRQVDTLQKYFDACADAVSKDELQRDKVVEDDEDDFPTTRSDGDFLHSTNGNKEKLFPHVTPKGINGIDFKGEAITFKATTAGILATLSHCIELMVKREDSWQKRLDKETEKKRRTEEAYKNAMTELKKKSHFGGPDYEEGPNSLINEEEFFDAVEAALDRQDKIEEQSQSEKVRLHWPTSLPSGDAFSSVGTHRFVQKPYSRSSSMSSIDLVSASDDVHRFSSQVEEMVQNHMTYSLQDVGGDANWQLVVEEGEMKVYRREVEENGIVLDPLKATHAVKGVTGHEVCNYFWNVDVRNDWETTIENFHVVETLADNAIIIYQTHKRVWPASQRDVLYLSVIRKIPALTENDPETWIVCNFSVDHDSAPLNNRCVRAKINVAMICQTLVSPPEGNQEISRDNILCKITYVANVNPGGWAPASVLRAVAKREYPKFLKRFTSYVQEKTAGKPILF
For B1, the binding result in experiment [1] and in experiment [2] was “no binding” throughout.

B2: GPBPΔ26, alternatively spliced GPBP variant deleted for 26 amino acid residues (enzyme)
chain: MSDNQSWNSSGSEEDPETESGPPVERCGVLSKWTNYIHGWQDRWVVLKNNALSYYKSEDETEYGCRGSICLSKAVITPHDFDECRFDISVNDSVWYLRAQDPDHRQQWIDAIEQHKTESGYGSESSLRRHGSMVSLVSGASGYSATSTSSFKKGHSLREKLAEMETFRDILCRQVDTLQKYFDACADAVSKDELQRDKVVEDDEDDFPTTRSDGDFLHSTNGNKEKLFPHVTPKGINGIDFKGEAITFKATTAGILATLSHCIELMVKREDSWQKRLDKETEKKRRTEEAYKNAMTELKKKSHFGGPDYEEGPNSLINEEEFFDAVEAALDRQDKIEEQSQSEKVRLHWPTSLPSGDAFSSVGTHRFVQKVEEMVQNHMTYSLQDVGGDANWQLVVEEGEMKVYRREVEENGIVLDPLKATHAVKGVTGHEVCNYFWNVDVRNDWETTIENFHVVETLADNAIIIYQTHKRVWPASQRDVLYLSVIRKIPALTENDPETWIVCNFSVDHDSAPLNNRCVRAKINVAMICQTLVSPPEGNQEISRDNILCKITYVANVNPGGWAPASVLRAVAKREYPKFLKRFTSYVQEKTAGKPILF
notes: The two-hybrid construct is not described; also called GPBP?26; GPBPD26
Consider B2, for which the binding result in experiment [1] and in experiment [2] was “no binding” each time.
